Assay results: patent publication US20230094463A1 (TRUEBINDING, published 2023)
Substitutions are numbered along the chain they refer to. Names may count otherwise.

T1: Gal3 Peptide 7 (AYPGAPGAYPGAPAPGVYPG) (human)
T1 peptide: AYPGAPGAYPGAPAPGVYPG

T2: Gal3 Peptide 1 (ADNFSLHDALSGSGNPNPQG) (human)
T2 peptide: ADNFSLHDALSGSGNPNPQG

B1: 20D11.2C6 (antibody, V domains shown)
VH: EVQLQQSGPELVKPGASVKISCKASGYTFTDFYINWVKQSHGKSLEWIGDINPKNGGINYNPKFKIKATLTVDKSSSTSYMDLRGLTSEDSAVYYCTSGYGFPYWGQGTLVTVSA
VL: DIQMNQSPSSLSASLGDTITITCRASQNIYIWLSWYQQKPGNIPKLLIYKASNLHTGVPSRFSGSGSGTDFTLTISTLQPEDIATYFCLQGQSYPLTFGAGTKLEMK
B2: 12G5.D7 (antibody, V domains shown)
VH: QVQLKQSGAELVRPGASVKLSCKASGYTFTDYYINWVKQRPGQGLEWIARIYPGTGNTDYNEKFKGRATLTAEKSSSTAYMQLSSLTSEDSAVYFCARFAYYYGSGGYFDYWGHGTTLTVSS
VL: DILMTQSPSSMSVSLGDTVSITCHASQGINSNMGWLQQKPGKSFKGLIYHATNLEDGVPSRFSGSGSGADYSLTISSLESEDFADYYCVQYAQFPPTFGSGTKLEIK
B3: 13A12.2E5 (antibody, V domains shown)
VH: QIQLVQSGPELKKPGETVKISCKTSGYKFKTYVMSWVKQAPGKALKWMGWINTYSGVPTYADDFKGRFAFSLETSASTAYLEIINLKNEDTATYFCARDGNYGDPMDYWGQGTSVTVSS
VL: DVVMTQTPLTLSVAIGQPASISCKSSQSLLYTNGKTYLNWLLQRPGQSPKRLIYLLSKLDSGVPDRFSASGSGTDFTLKISRVEAEDLGVYYCLQSTHFPLTFGAGTKLEMK
B4: 13G4.2F8 (antibody, V domains shown)
VH: QVQLQQPGAELVKPGASVKLSCKASGYTFTSYWMHWVKQRPGQGLEWIGMIHPNSGSTDYNEKFKNKATLNVDKSSSTAYIQLSSLTSEDSAVYYCTRWGIYYYARDYWGQGTTLTVSS
VL: DIVMTQSQKFMSTSVGERVSITCKASQNVGTNVAWYQQKAGQSLELLIYGASNRHTGVPDRFTGSGSGTDFTLTITNVQSEDMTNYFCEQYSNFPLTFGAGTKLELK
B5: 14H10.2C9 (antibody, V domains shown)
VH: QIQLVQSGPELKKPGETVKISCKASGYTFTTYGMGWVKQAPGKDLKWMGWINTYSGVPTYADDFKGRFAFSLETSASTAYLQISNLKNEDTATYFCSTPYEYDGAYWGQGTLVTVSA
VL: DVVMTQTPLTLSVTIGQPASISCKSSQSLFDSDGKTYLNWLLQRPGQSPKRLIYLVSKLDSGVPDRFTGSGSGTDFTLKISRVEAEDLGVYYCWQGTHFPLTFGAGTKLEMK
B6: 2D10.2B2 (antibody, V domains shown)
VH: QVQLQQSGPELVKPGASVKISCKASGYTFTDYYINWVKQRPGQGLEWIGWIYPGSNDTKYNEKFKGKATLTVDTSSSTAYMQLGSLTSEDSAVYFCANYFGCSGWFFDVWGTGTTVTVSS
VL: DIVMTQAAFSNPVTLGTSASISCRSSKSLLHSDGITYLYWYLQRPGQSPQLLIYRMSNLASGVPDRFSGSGSGTDFTLRISRVEAEDVGVYYCAQMIEFPLTFGAGTILELK
B7: 19B5.2E6 (antibody, V domains shown)
VH: QIQLVQSGPELKKPGETVKISCKASGYTFTTYAMSWVKQAPGKGLKWMGWINTYSGVPTYADDLKGRFAFSLETSASTAYLQINNLKNEDTATYFCARGPYAMDYWGQGTSVTVSS
VL: DIQMTQTTSSLSASLGDRVTISCSASQGINNYLNWYQQKPDGTVKLLIYYASSLHSGVPSRFSGSGSGTDYSLTISNLEPEDIATYYCQQYSQVPYTFGSGTKLEIK
B8: IMT006 (TB006) (antibody, V domains shown)
VH: QVQLVQSGAEVKKPGASVKVSCKASGYSFTNYYMHWVRQAPGQRLEWMGWIYPGSGNTNYNEKFQGRVTITADTSASTAYMELSSLRSEDTAVYYCSTAPGGFDVWGQGTTVTVSS
VL: DIVMTQTPLSLSVTPGQPASISCKSSKSLLHSDGITYLYWYLQKPGQSPQLLIYRMSNLASGVPDRFSGSGSGTDFTLKISRVEAEDVGVYYCAQMLEFPLTFGQGTKLEIK
notes: anti-Gal3 antibody
B9: IMT001 (TB001) (antibody, V domains shown)
VH: QVQLVQSGSELKKPGASVKVSCKASGYTFTNYGMNWVRQAPGQGLKWMGWINTNTGEPTYVEEFTGRFVFSLETSVSTAYLQISSLKAEDTAVYFCAPYDNFFAYWGQGTTVTVSS
VL: DIVLTQSPLSLPVTPGEPASISCRSSKSLLYKDGKTYLNWFLQKPGQSPQLLIYLMSTHASGVPDRFSGSGSGTDFTLKISRVEAEDVGVYYCQQLVDYPLTFGGGTKLEIK
notes: anti-Gal3 antibody; also called IMT001-4
B10: F846C.1F5 (antibody, V domains shown)
VH: QIQLVQSGPELKKPGETVKISCKASGYTFTNYGMNWVKQAPGKGLKWMGWINTYTGEPSYADDFKGRFAFSLETSASTAYLQINNLKNEDMATYFCARWGGYDGDYYAMDYWGQGTSVTVSS
VL: NIMMTQSPSSLAVSAGEKVTMSCKSSQSVLYSSNQKNYLAWYQQKPGQSPKLLIYWASTRESGVPDRFTGSGSGTDFTLTISSVQPEDLAVYYCHQYLSSLTFGAGTKLELK
notes: also called 846.1F5
B11: 15G7.2A7 (antibody, V domains shown)
VH: B1 VH with F32Y, I34M, K54N, I58T, P62Q, I66G, S79A, D82E, G85S
VL: B1 VL with T20S, Y30N, K45Q, T77S, F87Y, E105V

target: T3, Human GAL3 protein (TrueBinding, QCB200349 / QCB200352; R&D Systems, 8259-GA) (human, UniProt P17931 2-250); test: cell-based or functional assay

Binder	inhibition of Jurkat T cell adhesion
B1	> 90%

target: T4, Human Galectin-3 protein (Acro Biosystems, GA3-H5129) (human, UniProt P17931 2-250); test: blocking ELISA (Gal3 coated; antibody 3 µg/mL + INSR)
T4 construct: Bought protein; also called Gal3-ECD-His; Gal3-His; not shown: linker-spaced 6-histidine tag

Binder	reduction of Gal3-INSR binding (%)	Gal3-INSR binding remaining, % of unblocked sample
B2	≤ 30%	–
B3	–	< 5%
B4	≤ 30%	–
B5	–	< 5%
B6	–	< 5%
B1	–	< 5%
B7	–	< 5%

target: T3, Human GAL3 protein (TrueBinding, …); test: blocking ELISA (GAL3 coated; antibody + biotinylated ITGa3)

Binder	percent blockade of GAL3-ITGa3 interaction
B8	> 90%
B9	> 90%
B2	< 35%
B3	> 90%
B4	< 35%
B5	> 90%
B6	> 90%
B1	> 90%
B10	> 90%
B7	> 90%

target: T3, Human GAL3 protein (TrueBinding, …); test: blocking ELISA (GAL3 coated; antibody + biotinylated ITGaV)

Binder	percent blockade of GAL3-ITGaV interaction
B8	> 90%
B9	> 90%
B2	< 30%
B4	< 30%
B5	> 90%
B6	> 90%
B1	> 90%
B10	> 90%
B7	> 90%

target: T3, Human GAL3 protein (TrueBinding, …); test: blocking ELISA (GAL3 coated; antibody + biotinylated ITGb1)

Binder	percent blockade of GAL3-ITGb1 interaction
B8	> 90%
B9	> 90%
B10	> 90%

target: T3, Human GAL3 protein (TrueBinding, …); test: blocking ELISA (GAL3 coated; antibody + biotinylated ITGb3)

Binder	percent blockade of GAL3-ITGb3 interaction
B8	> 90%
B9	> 90%
B2	< 10%
B3	> 90%
B4	< 10%
B5	> 90%
B6	> 90%
B1	> 90%
B10	> 90%
B7	> 90%

target: T4, Human Galectin-3 protein (Acro …); test: ELISA, blocking of INSR binding to coated Gal3

Binder	IC50 (read off the curve)
B8	~0.7 µg/mL
B9	~0.8 µg/mL
B6	~0.5 µg/mL

Target: T1, Gal3 Peptide 7 (AYPGAPGAYPGAPAPGVYPG)
Test: peptide ELISA (peptide coated; antibody hIgG4 [S228P], 5 µg/mL)

Binder	binding result
B7	binds

Target: T2, Gal3 Peptide 1 (ADNFSLHDALSGSGNPNPQG)
Test: as above

Binder	binding result
B7	binds

target: T4, Human Galectin-3 protein (Acro …); test: ELISA, blocking of INSR binding to coated Gal3; remark: another data set of the same source

Binder	Gal3-INSR Blocking @ 3 µg/mL
B8	100%
B9	100%
B2	27%
B3	97%
B4	11%
B5	100%
B6	100%
B1	100%
B11	100%
B7	100%

target: T4, Human Galectin-3 protein (Acro …); test: SPR (Biacore T200), antibody captured, Galectin-3 as analyte

Binder	Kd
B8	16.5 nM
B9	6.09 nM
B2	1.9 nM
B3	8.2 nM
B4	2.53 nM
B5	0.562 nM
B6	0.753 nM
B1	27.8 nM
B11	11.3 nM
B7	< 1 nM

target: T4, Human Galectin-3 protein (Acro …); test: SPR (Biacore T200; antibody captured via anti-Fc, Galectin-3 analyte, 1:1 fit)

Binder	Kd
B4	18.4 nM
B11	27.8 nM
